Reference: EP2019137A1

Molecular target: wild-type SPW1 protein (SUPERWOMAN1, AP3-type class-B MADS-box protein of rice), M, I and K domains, yeast two-hybrid construct (rice (Oryza sativa))
Experiment: yeast two-hybrid, LacZ reporter

Which binding relative to OsMADS2wt with SPW1^wt (fold of OsMADS2wt-SPW1^wt binding) does the source give for “V45T mutant-type protein of OsMADS2, M, I and K domains, yeast two-hybrid construct” here?
The binding relative to OsMADS2wt with SPW1^wt (fold of OsMADS2wt-SPW1^wt binding) was 0.5.
